Measurements: patent US10363306B2, “Cytokines and neuroantigens for treatment of immune disorders” (East Carolina University, priority 2009, dated 2019)

Assays:
CTLL T cells = assay: Anti-proliferative/killing activity on CTLL T cells; assay type: cell-based, mouse; settings: murine CTLL T cells; baculovirus supernatants
Description: (§1) FIG. 1. The IFNβ-NAg his-tagged fusion protein was biologically active and was purified on nickel resins. (A) To assess whether IFNβ-NAg induced class I MHC expression, thymocytes (5×10^6/ml in complete RPMI) were cultured with or without IFNβ-NAg for 2 days and then were stained with B5 (anti-MHC-I), OX18 (anti-MHC-I), R73 (anti-TCRβ), or OX81 (anti-IL4; isotype control) and were analyzed by flow cytometry. (B) To assess IFNβ-mediated anti-proliferative activity, supernatants from two independently derived IFNβ-NAg expression systems as well as supernatants from several control expression systems were added at designated titrations (x-axis) to IL-2 stimulated cultures of BN-GP T cells. (C) To assess the specificity of anti-proliferative activity, baculovirus supernatants containing IFNβ-NAg were added at designated titrations to cultures of rat (R1T, BN-GP, RsL.11T, RsL.11, or Conal.8D9) or mouse (CTLL) T cells. Proliferative assays (B & C) were pulsed with [^3H]thymidine on the second day of a 3-day culture. (D) Shown is a representative SDS-PAGE analysis of purified IFNβ-NAg. […]
(§2) Cultures were pulsed with 1 uCi of [^3H]thymidine (6.7 Ci/mmol, New England Nuclear) during the last day of a 3 or 4 day culture. […] [^3H]thymidine incorporation into DNA was measured by use of a Wallac 1450 Microbeta Plus liquid scintillation counter. […]

R1T = assay: Anti-proliferative/killing activity on R1T T cells; assay type: cell-based, rat; settings: baculovirus supernatants
Description: as §1, §2

EAE in SJL mice = assay: Treatment of passively induced EAE and second active challenge in SJL mice; assay type: in vivo; settings: murine IFNβ/PLP139-151 fusion protein; 2 nanomoles s.c. days 12, 14, 16
Description: FIG. 8. […] Shown are the time-courses of EAE (A) and the percent maximal weight (B) from example 4.
On day 0, mice were passively challenged with activated, encephalitogenic T cells specific for the PLP139-151 epitope. […] On day 12, three groups of mice were matched for clinical severity. On days 12, 14, and 16, mice were treated with the IFNβ-NAg fusion protein (2 nanomoles), a synthetic PLP139-151 peptide (2 nanomoles), or saline. Treatments were given by subcutaneous injections of proteins or peptides in saline. On day 24, mice were actively challenged to induce a second bout of EAE by challenge with 200 micrograms of PLP139-151 in Complete Freund's Adjuvant. […] Furthermore, the fusion protein promoted a tolerogenic effect that ameliorated the subsequent bout of EAE (FIG. 8A). These observations support the concept that the IFNβ-NAg fusion protein may have clinical activities conducive for the treatment of autoimmune demyelinating disease of the central nervous system.

Conal.8D9 = assay: Anti-proliferative/killing activity on Conal.8D9 T cells; assay type: cell-based, rat; settings: baculovirus supernatants
Description: as §1, §2

RsL.11 clone = assay: Anti-proliferative/killing activity on RsL.11 T cells; assay type: cell-based, rat; settings: baculovirus supernatants
Description: as §1, §2

RsL.11T = assay: Anti-proliferative/killing activity on RsL.11T T cells; assay type: cell-based, rat; settings: baculovirus supernatants
Description: as §1, §2

thymocytes = assay: Induction of class I MHC expression on thymocytes (flow cytometry); assay type: cell-based; settings: 2 days of culture
Description: FIG. 1. The IFNβ-NAg his-tagged fusion protein was biologically active and was purified on nickel resins. (A) To assess whether IFNβ-NAg induced class I MHC expression, thymocytes (5×10^6/ml in complete RPMI) were cultured with or without IFNβ-NAg for 2 days and then were stained with B5 (anti-MHC-I), OX18 (anti-MHC-I), R73 (anti-TCRβ), or OX81 (anti-IL4; isotype control) and were analyzed by flow cytometry. (B) To assess IFNβ-mediated anti-proliferative activity, supernatants from two independently derived IFNβ-NAg expression systems as well as supernatants from several control expression systems were added at designated titrations (x-axis) to IL-2 stimulated cultures of BN-GP T cells. (C) To assess the specificity of anti-proliferative activity, baculovirus supernatants containing IFNβ-NAg were added at designated titrations to cultures of rat (R1T, BN-GP, RsL.11T, RsL.11, or Conal.8D9) or mouse (CTLL) T cells. Proliferative assays (B & C) were pulsed with [^3H]thymidine on the second day of a 3-day culture. (D) Shown is a representative SDS-PAGE analysis of purified IFNβ-NAg.
T cells were incubated with a 1/20 titration of a concentrated supernatant containing the designated mAb for 45 minutes at 4° C. […] Data were acquired with a Becton Dickinson FACScan flow cytometer and were analyzed with the CELLQuest software program. […]

B1: IFNβ-NAg: Fusion protein: rat IFNβ, enterokinase linker (GDDDDKG), encephalitogenic 73-87 peptide of guinea pig MBP, C-terminal 6-histidine tag (protein)
chain: IDYKQLQFRQSTSIRTCQKLLRQLNGRLNLSYRTDFKIPMEVMHPSQMEKSYTAFAIQVMLQNVFLVFRSNFSSTGWNETIVESLLDELHQQTELLEIILKEKQEERLTWVTSTTTLGLKSYYWRVQRYLKDKKYNSYAWMVVRAEVFRNFSIILRLNRNFQNGDDDDKGPQKSQRSQDENPVVHHHHHH
In the case of B1, the “cell death of T cell line” value (CTLL T cells) is reported as “did not kill”, the “cell death of T cell line” value (R1T) is reported as “did not kill” and the “EAE-associated cachexia (percent maximal weight)” value (EAE in SJL mice) is reported as “acutely reversed EAE-associated cachexia”. For the same molecule, the “cell death of T cell line” value (Conal.8D9) was “directly caused the death”, the “cell death of T cell line” value (RsL.11 clone) was “directly caused the death” and the “cell death of T cell line” value (RsL.11T) was “directly caused the death”. The “expression of MHC-I on immature thymocytes” value (thymocytes; 1% titration of baculovirus expression supernatant) was “induced the expression of MHC-I” and the TCRβ expression (thymocytes; baculovirus expression supernatant) was “did not affect TCRβ expression”.
